Test results reported in patent publication US20240287150A1 (Harvard, published 2024).

Target: T1, EPO receptor (EPOR) on TF-1 cells (human, UniProt P19235 25-508)
T1 sequence (looked up): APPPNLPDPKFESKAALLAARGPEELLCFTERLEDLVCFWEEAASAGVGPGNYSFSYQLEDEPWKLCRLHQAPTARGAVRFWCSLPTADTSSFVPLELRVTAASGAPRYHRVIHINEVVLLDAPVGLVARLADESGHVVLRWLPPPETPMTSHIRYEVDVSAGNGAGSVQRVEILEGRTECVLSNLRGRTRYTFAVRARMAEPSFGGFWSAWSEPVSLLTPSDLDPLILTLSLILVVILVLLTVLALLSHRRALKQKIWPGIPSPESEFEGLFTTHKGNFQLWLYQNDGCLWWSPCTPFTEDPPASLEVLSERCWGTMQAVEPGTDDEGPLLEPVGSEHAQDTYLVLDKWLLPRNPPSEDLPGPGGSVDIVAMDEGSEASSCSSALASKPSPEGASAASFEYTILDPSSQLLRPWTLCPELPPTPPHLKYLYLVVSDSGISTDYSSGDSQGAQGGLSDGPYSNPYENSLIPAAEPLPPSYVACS
Assay: cell-based or functional assay

EC50 relative to epoetin alfa, TF-1 cell proliferation: 14.2 fold
Substance: Darbepoetin (Aranesp), hyperglycosylated EPO (ligand)
